Reference: patent publication US6919086B1, “Graminae pollen allergen mutants for specific immunotherapy, and production and use of the same” (Merck Patent Gesellschaft mit, priority 1997, dated 2005)
Where a chain is given by its changes, count along the chain named. In names and notes the source's numbering stands. Entries after “also recorded” stand apart in the source; their conditions may differ. Like-named read-outs stand apart in the source and are kept apart here.

Legend:
[1] = tested on: IgE antibodies of allergic patients; assay: EAST inhibition test (IgE reactivity / allergenicity); format: binding, human; conditions: for IC50: read-out: Inhibition value 50% (concentration of the inhibitor at 50% inhibition); for Allergenic potency (Prel) 25%: relative to native Phl p 5b at 25% inhibition; for Allergenic potency (Prel) 50%: relative to native Phl p 5b at 50% inhibition; for EAST inhibition curve / inhibitory effect (in words): serum pool Bor 18/100 (20 donors), FIG. 1; for Allergenicity from EAST inhibition curves (in words): serum pool We 6/97 and individual sera II3, II12, II17, FIGS. 2-5
Method: The effects of the induced mutations on the allergenicity, i.e. the ability to bind to the IgE antibodies of allergic patients, of the modified recombinant allergens is determined qualitatively and quantitatively by means of the EAST inhibition test. […] The extent of the immunochemical relatedness (cross reactivity) can also be quantified. This EAST inhibition test only takes the reaction with IgE antibodies into account.
The binding of the allergens by the IgE antibodies is the basic prerequisite for the allergen-specific activation of the effector cells (mast cells, basophils, inter alia) in type I allergy. The allergen-specific inhibition of the enzyme/allergen sorbent test (EAST) is the best means for qualitatively and quantitatively recording the binding of the allergens to IgE anti-bodies. The EAST inhibition test is carried out as follows. Microtitre plates are coated with allergen (natural or recombinant Ph1 p 5 or Ph1 p 5b) (1 μg/ml). After the unbound allergen molecules have been removed by washing, non-specific plastic binding sites are blocked with bovine serum albumin (0.5%). […] from allergic patients, as a representative pool of 10-30 donors or as an individual serum, is incubated, in a suitable dilution, with the allergen-coated microtritre plates. The bound allergen-specific IgE antibodies are quantified using enzyme-coupled anti-IgE antibodies (e.g. alk. phosphatase-a-IgE antibodies). This binding is inhibited by soluble allergen or the substance to be tested (allergen mutants) in dependence on the concentration. The inhibition curve obtained with the purified natural allergen Ph1 p 5b is used as the reference.

[2] = tested on: basophils from the blood of an allergic patient; assay: Histamine release from basophils; format: cell-based, human
Method: Apart from the binding of the allergen to the spec. IgE, the allergen-induced, IgE-mediated release of histamine by allergic effect or cells is of pathophysiological importance for the allergic reaction (side effect). The reactivity of the effector cells (basophils and mast cells) and the epitope specificity of the IgE antibodies which are bound by way of FcεRI are also of importance in this context. For this reason, the modified recombinant allergen variants are tested for their ability to induce histamine release by the degranulation of IgE-loaded basophils which are isolated from the blood of allergic patients.
Before the histamine release test was carried out, the basophilic leucocytes from the EDTA blood of an allergic patient ([…]) were first of all enriched by means of dextran sedimentation and then adjusted to a final concentration of 100,000 basophils/ml. In order to release histamine from the basophils, 200 μl of the cell suspension were in each case incubated, at 37° C. for 40 min, with 50 μl of antigen solution. For this, the rPh1 […] p 5b and the mutants were employed in varying concentrations (of 10^−5-10^−12 M). The histamine which was released was determined in the respective supernatants using the Pharmacia methylhistamine RIA in accordance with the manufacturer's instructions.

[3] = target: IgE antibodies of the individual allergic patient serum II/12; assay: EAST inhibition, individual serum II/12
[4] = allergic patient serum pool Bor 18/100
[5] = allergic patient serum pool We 6/97
[6] = individual allergic patient serum II/3
[7] = individual allergic patient serum II/12
[8] = individual allergic patient serum II/17

B1: DM1: deletion mutant of rPhl p 5b (ΔK50-P132, D49→L), SEQ ID NO 91 (protein)
chain: ADAGYAPATPAAAGAAAGKATTEEQKLIEDINVGFKAAVAAAASVPAALAGELQIIDKIDAAFKVAATAAATAPADDKFTVFEAAFNKAIKESTGGAYDTYKCIPSLEAAVKQAYAATVAAAPQVKYAVFEAALTKAITAMSEVQKVSQPATGAATVAAGAATTAAGAASGAATVAAGGYKV
[1]; all serum pools and individual sera, Prel values
  Allergenicity / IgE reactivity, overall assessment (in words): marked reduction in allergenicity; also recorded: greatly reduced, it is still detectable
[1]; [4]
  Inhibition value 25% (concentration of the inhibitor at 25% inhibition): 8.6e-09 mol/L
  IC50: 28 nM
[1]; [5]
  Inhibition value 25% (concentration of the inhibitor at 25% inhibition): 2.3e-08 mol/L
  IC50: 17000 nM
[1]; [6]
  Inhibition value 25% (concentration of the inhibitor at 25% inhibition): 1.2e-08 mol/L
  IC50: 17 nM
[1]; [7]
  Inhibition value 25% (concentration of the inhibitor at 25% inhibition): 1.5e-05 mol/L
[1]; [8]
  Inhibition value 25% (concentration of the inhibitor at 25% inhibition): 6.5e-09 mol/L
  IC50: 2 nM
[1]; individual serum II/3
  Allergenic potency (Prel) 25%: 0.0420
  Allergenic potency (Prel) 50%: 0.0035
[1]; individual serum II/12
  Allergenic potency (Prel) 25%: 3.4 × 10^−5
  Allergenic potency (Prel) 50%: 1.0 × 10^−10
[1]; individual serum II/17
  Allergenic potency (Prel) 25%: 0.033
  Allergenic potency (Prel) 50%: 0.0010
[1]; serum pool Bor 18/100
  Allergenic potency (Prel) 25%: 0.039
  Allergenic potency (Prel) 50%: 0.0015
[1]; serum pool We 6/97
  Allergenic potency (Prel) 25%: 0.022
  Allergenic potency (Prel) 50%: 0.0004
[1]
  EAST inhibition curve / inhibitory effect (in words): markedly decreased inhibitory effect
  Allergenicity from EAST inhibition curves (in words): greatly reduced allergenicity
[2]
  Concentration required to bring about a 30% histamine release, fold higher than wild type rPhl p 5b: 20 fold

B2: rPhl p 5b point mutant PM1 (N32D, D49L, K50A) (protein)
chain: ADAGYAPATPAAAGAAAGKATTEEQKLIEDIDVGFKAAVAAAASVPAALAFKTFEAAFTSSSKAAAAKAPGLVPKLDAAYSVAYKAAVGATPEAKFDSFVASLTEALRVIAGALEVHAVKPVTEEPGMAKIPAGELQIIDKIDAAFKVAATAAATAPADDKFTVFEAAFNKAIKESTGGAYDTYKCIPSLEAAVKQAYAATVAAAPQVKYAVFEAALTKAITAMSEVQKVSQPATGAATVAAGAATTAAGAASGAATVAAGGYKV
[3]
  IC50: 83 nM
  allergenic potency (Prel) at 25% inhibition (relative to native Phl p 5b): 0.391
  allergenic potency (Prel) at 50% inhibition (relative to native Phl p 5b): 0.082
  inhibition value (inhibitor concentration at 25% inhibition): 1.3e-09 mol/L
[1]; [4]
  Inhibition value 25% (concentration of the inhibitor at 25% inhibition): 4.5e-10 mol/L
  IC50: 12 nM
[1]; [5]
  Inhibition value 25% (concentration of the inhibitor at 25% inhibition): 1.2e-09 mol/L
  IC50: 120 nM
[1]; [6]
  Inhibition value 25% (concentration of the inhibitor at 25% inhibition): 8.6e-10 mol/L
  IC50: 19 nM
[1]; [7]
  Inhibition value 25% (concentration of the inhibitor at 25% inhibition): 1.3e-09 mol/L
  IC50: 83 nM
[1]; [8]
  Inhibition value 25% (concentration of the inhibitor at 25% inhibition): 6.4e-10 mol/L
  IC50: 2.2 nM
[1]; individual serum II/3
  Allergenic potency (Prel) 25%: 0.5950
  Allergenic potency (Prel) 50%: 0.3140
[1]; individual serum II/12
  Allergenic potency (Prel) 25%: 0.391
  Allergenic potency (Prel) 50%: 0.082
[1]; individual serum II/17
  Allergenic potency (Prel) 25%: 0.336
  Allergenic potency (Prel) 50%: 0.1190
[1]; serum pool Bor 18/100
  Allergenic potency (Prel) 25%: 0.739
  Allergenic potency (Prel) 50%: 0.3490
[1]; serum pool We 6/97
  Allergenic potency (Prel) 25%: 0.415
  Allergenic potency (Prel) 50%: 0.0510
[1]
  EAST inhibition curve / inhibitory effect (in words): exhibits this effect in the higher range to a somewhat greater degree
  Allergenicity from EAST inhibition curves (in words): either no reduction, or only a reduction which is for the most part slight

B3: rPhl p 5b point mutant PM3 (A13C) (protein)
chain: B2 chain with A13C, D32N, L49D, A50K
[3]
  IC50: 91 nM
  allergenic potency (Prel) at 25% inhibition (relative to native Phl p 5b): 0.389
  allergenic potency (Prel) at 50% inhibition (relative to native Phl p 5b): 0.075
  inhibition value (inhibitor concentration at 25% inhibition): 1.3e-09 mol/L
[1]; [4]
  Inhibition value 25% (concentration of the inhibitor at 25% inhibition): 2e-10 mol/L
  IC50: 4.8 nM
[1]; [5]
  Inhibition value 25% (concentration of the inhibitor at 25% inhibition): 8.3e-10 mol/L
  IC50: 30 nM
[1]; [6]
  Inhibition value 25% (concentration of the inhibitor at 25% inhibition): 5.5e-10 mol/L
  IC50: 15 nM
[1]; [7]
  Inhibition value 25% (concentration of the inhibitor at 25% inhibition): 1.3e-09 mol/L
  IC50: 91 nM
[1]; [8]
  Inhibition value 25% (concentration of the inhibitor at 25% inhibition): 2.5e-10 mol/L
  IC50: 5.5 nM
[1]; individual serum II/3
  Allergenic potency (Prel) 25%: 0.9220
  Allergenic potency (Prel) 50%: 0.3990
[1]; individual serum II/12
  Allergenic potency (Prel) 25%: 0.389
  Allergenic potency (Prel) 50%: 0.075
[1]; individual serum II/17
  Allergenic potency (Prel) 25%: 0.855
  Allergenic potency (Prel) 50%: 0.4680
[1]; serum pool Bor 18/100
  Allergenic potency (Prel) 25%: 1.641
  Allergenic potency (Prel) 50%: 0.8640
[1]; serum pool We 6/97
  Allergenic potency (Prel) 25%: 0.611
  Allergenic potency (Prel) 50%: 0.2030
[1]
  EAST inhibition curve / inhibitory effect (in words): binding curves which are similar to that obtained with natural Ph1 p 5b
  Allergenicity from EAST inhibition curves (in words): either no reduction, or only a reduction which is for the most part slight
